{"source": "patent EP3574020B1", "molecular_target": "commercially-prepared stable A-beta42 Oligomers (SynAging) (human)", "sequence (peptide, as listed by the source)": "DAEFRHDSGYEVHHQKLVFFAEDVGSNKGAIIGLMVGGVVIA", "test": "SPR; antibody covalently immobilized, stable A-beta42 oligomers at 1 microM"}
{"substance": "negative control IgG1 (antibody)", "values": [{"measurement": "binding response units (BRU), mean", "result": 2.5, "unit": "BRU"}]}
